Measurements: the supplement of paper PMC5998384

Experiments:
[1] = tested on: HeLa Kyoto; assay: solubility in G1/S (NP-40 vs SDS abundance) (log2 ratio); higher = more soluble; conditions: cell cycle stage: G1/S
[2] = tested on: HeLa Kyoto; assay: melting temperature (median over replicates), in situ; higher = more thermally stable
[3] = tested on: HeLa Kyoto; assay: solubility change mitosis vs G1/S (difference of NP-40 vs SDS log2 ratios) (log2 ratio difference); higher = more soluble in mitosis
[4] = tested on: HeLa Kyoto; assay: thermal stability score vs G1/S (z-score of summed log2 fold changes over temperatures); higher = more thermally stable than in G1/S
[5] = cell cycle stage: early G1 (4.5 h after nocodazole release)
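For melting temperature (median over replicates), in situ in this document: HeLa Kyoto cells synchronized by double thymidine or nocodazole block, proteins quantified by TMT10plex mass spectrometry, three independent biological replicates.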
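For solubility change mitosis vs G1/S (difference of NP-40 vs SDS log2 ratios) in this document: synchronized HeLa Kyoto cells (double thymidine block for G1/S, nocodazole release for mitosis), protein amounts in NP-40 versus SDS lysates quantified by mass spectrometry, three biological replicates.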
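For solubility in G1/S (NP-40 vs SDS abundance) in this document: HeLa Kyoto cells arrested at G1/S by double thymidine block, proteins quantified by TMT10plex mass spectrometry in mild NP-40 versus SDS extracts, three biological replicates.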
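For thermal stability score vs G1/S (z-score of summed log2 fold changes over temperatures) in this document: synchronized HeLa Kyoto cells, proteins quantified by TMT10plex mass spectrometry, three biological replicates, mitosis taken 0.5 h after nocodazole release, G1/S directly after double thymidine block.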

Row | Sequence | solubility in G1/S (log2) [1] | melting temperature ([2]; cell cycle stage: G1/S) [°C] | melting temperature ([2]; cell cycle stage: mitosis) [°C] | solubility change mitosis (log2) [3] | thermal stability score [4, 5] | thermal stability score ([4]; cell cycle stage: mitosis)
1 | MAALGVAEAVAAPHPAEGAETAEAVELSRALSRLLPGLEADSKPGRRRALEALRRALEEPGPAADPTAFQGPWARLLLPRLLRCLSDPAEGCRALAVHLLDLGLRRAARPRDALPRLLPALAARLAGPVPARRPPEACEELRLALVQLLGLAVDLCGAALAPHLDDALRALRCSLLDPFAAVRRESCSCAAALAQATPDHFHMQSESLIGPLMQTISHQHWKVRVAAIEATGAVIHFGNGKSVDDVLSHFAQRLFDDVPQVRRAVASVVGGWLLCLRDRYSFFHKLIPLLLSSLNDEVPEVRQLAASLWEDVGLQWQKENEEDLKDKLDFAPPTPPHYPPHERRPVLGCRELVFRNLSKILPALCHDITDWVVGTRVKSAQLLPVLLLHAEDHATQHLEVVLRTLFQACTDEEAAVVQSCTRSAELVGTFVSPEVFLKLILSTLKKTPSASGLLVLASAMRGCPREALQPHLAAIATELAQAHICQASENDLYLERLLLCVQALVSVCHEDCGVASLQLLDVLLTIVALAGATGLRDKAQETMDSLAMVEGVSSCQDLYRKHIGPLLERVTASHLDWTAHSPELLQFSVIVAQSGPALGEALPHVVPTLRACLQPSQDPQMRLKLFSILSTVLLRATDTINSQGQFPSYLETVTKDILAPNLQWHAGRTAAAIRTAAVSCLWALTSSEVLSAEQIRDVQETLMPQVLTTLEEDSKMTRLISCRIINTFLKTSGGMTDPEKLIRIYPELLKRLDDVSNDVRMAAASTLVTWLQCVKGANAKSYYQSSVQYLYRELLVHLDDPERAIQDAILEVLKEGSGLFPDLLVRETEAVIHKHRSATYCEQLLQHVQAVPATQ [DNAAF5] | 0.0447 | 48.1 | 48 | -0.172 | 0.695 | 2.82
2 | MADEAALALQPGGSPSAAGADREAASSPAGEPLRKRPRRDGPGLERSPGEPGGAAPEREVPAAARGCPGAAAAALWREAEAEAAAAGGEQEAQATAAAGEGDNGPGLQGPSREPPLADNLYDEDDDDEGEEEEEAAAAAIGYRDNLLFGDEIITNGFHSCESDEEDRASHASSSDWTPRPRIGPYTFVQQHLMIGTDPRTILKDLLPETIPPPELDDMTLWQIVINILSEPPKRKKRKDINTIEDAVKLLQECKKIIVLTGAGVSVSCGIPDFRSRDGIYARLAVDFPDLPDPQAMFDIEYFRKDPRPFFKFAKEIYPGQFQPSLCHKFIALSDKEGKLLRNYTQNIDTLEQVAGIQRIIQCHGSFATASCLICKYKVDCEAVRGDIFNQVVPRCPRCPADEPLAIMKPEIVFFGENLPEQFHRAMKYDKDEVDLLIVIGSSLKVRPVALIPSSIPHEVPQILINREPLPHLHFDVELLGDCDVIINELCHRLGGEYAKLCCNPVKLSEITEKPPRTQKELAYLSELPPTPLHVSEDSSSPERTSPPDSSVIVTLLDQAAKSNDDLDVSESKGCMEEKPQEVQTSRNVESIAEQMENPDLKNVGSSTGEKNERTSVAGTVRKCWPNRVAKEQISRRLDGNQYLFLPPNRYIFHGAEVYSDSEDDVLSSSSCGSNSDSGTCQSPSLEEPMEDESEIEEFYNGLEDEPDVPERAGGAGFGTDGDDQEAINEAISVKQEVTDMNYPSNKS [SIRT1] | -0.0978 | 50.2 | 50.1 | -0.0419 | 0.328 | 2.02
3 | MSDNGELEDKPPAPPVRMSSTIFSTGGKDPLSANHSLKPLPSVPEEKKPRHKIISIFSGTEKGSKKKEKERPEISPPSDFEHTIHVGFDAVTGEFTGMPEQWARLLQTSNITKLEQKKNPQAVLDVLKFYDSNTVKQKYLSFTPPEKDGFPSGTPALNAKGTEAPAVVTEEEDDDEETAPPVIAPRPDHTKSIYTRSVIDPVPAPVGDSHVDGAAKSLDKQKKKTKMTDEEIMEKLRTIVSIGDPKKKYTRYEKIGQGASGTVFTATDVALGQEVAIKQINLQKQPKKELIINEILVMKELKNPNIVNFLDSYLVGDELFVVMEYLAGGSLTDVVTETCMDEAQIAAVCRECLQALEFLHANQVIHRDIKSDNVLLGMEGSVKLTDFGFCAQITPEQSKRSTMVGTPYWMAPEVVTRKAYGPKVDIWSLGIMAIEMVEGEPPYLNENPLRALYLIATNGTPELQNPEKLSPIFRDFLNRCLEMDVEKRGSAKELLQHPFLKLAKPLSSLTPLIMAAKEAMKSNR [PAK2] | 0.152 | 54.9 | 54.6 | -0.119 | -1.97 | -1.45
4 | MSEWMKKGPLEWQDYIYKEVRVTASEKNEYKGWVLTTDPVSANIVLVNFLEDGSMSVTGIMGHAVQTVETMNEGDHRVREKLMHLFTSGDCKAYSPEDLEERKNSLKKWLEKNHIPITEQGDAPRTLCVAGVLTIDPPYGPENCSSSNEIILSRVQDLIEGHLTASQ [GEMIN6] | 0.271 | 53.6 | 52.3 | 0.0835 | -0.4 | -2.06
5 | MSWGTELWDQFDNLEKHTQWGIDILEKYIKFVKERTEIELSYAKQLRNLSKKYQPKKNSKEEEEYKYTSCKAFISNLNEMNDYAGQHEVISENMASQIIVDLARYVQELKQERKSNFHDGRKAQQHIETCWKQLESSKRRFERDCKEADRAQQYFEKMDADINVTKADVEKARQQAQIRHQMAEDSKADYSSILQKFNHEQHEYYHTHIPNIFQKIQEMEERRIVRMGESMKTYAEVDRQVIPIIGKCLDGIVKAAESIDQKNDSQLVIEAYKSGFEPPGDIEFEDYTQPMKRTVSDNSLSNSRGEGKPDLKFGGKSKGKLWPFIKKNKLMSLLTSPHQPPPPPPASASPSAVPNGPQSPKQQKEPLSHRFNEFMTSKPKIHCFRSLKRGLSLKLGATPEDFSNLPPEQRRKKLQQKVDELNKEIQKEMDQRDAITKMKDVYLKNPQMGDPASLDHKLAEVSQNIEKLRVETQKFEAWLAEVEGRLPARSEQARRQSGLYDSQNPPTVNNCAQDRESPDGSYTEEQSQESEMKVLATDFDDEFDDEEPLPAIGTCKALYTFEGQNEGTISVVEGETLYVIEEDKGDGWTRIRRNEDEEGYVPTSYVEVCLDKNAKDS [FNBP1] | 0.298 | 49.7 | 49.4 | -0.129 | 0.62 | 0.929
6 | MSWLSSSQGVVLTAYHPSGKDQTVGNSHAKAGEEATSSRRYGQYTMNQESTTIKVMEKPPFDRSISQDSLDELSMEDYWIELENIKKSSENSQEDQEVVVVKEPDEGELEEEWLKEAGLSNLFGESAGDPQESIVFLSTLTRTQAAAVQKRVETVSQTLRKKNKQYQIPDVRDIFAQQRESKETAPGGTESQSLRTNENKYQGRDDEASNLVGEEKLIPPEETPAPETDINLEVSFAEQALNQKESSKEKIQKSKGDDATLPSFRLPKDKTGTTRIGDLAPQDMKKVCHLALIELTALYDVLGIELKQQKAVKIKTKDSGLFCVPLTALLEQDQRKVPGMRIPLIFQKLISRIEERGLETEGLLRIPGAAIRIKNLCQELEAKFYEGTFNWESVKQHDAASLLKLFIRELPQPLLSVEYLKAFQAVQNLPTKKQQLQALNLLVILLPDANRDTLKALLEFLQRVIDNKEKNKMTVMNVAMVMAPNLFMCHALGLKSSEQREFVMAAGTANTMHLLIKYQKLLWTIPKFIVNQVRKQNTENHKKDKRAMKKLLKKMAYDREKYEKQDKSTNDADVPQGVIRVQAPHLSKVSMAIQLTEELKASDVLARFLSQESGVAQTLKKGEVFLYEIGGNIGERCLDDDTYMKDLYQLNPNAEWVIKSKPL [ARHGAP18] | 0.188 | 50 | 50 | -0.128 | 0.338 | 0.693
